Results from patent publication US20070184522A1, “Cell death modulation via antagonists of Fasl and Fas activation” (University of Pittsburgh of the Commonwealth System of …, priority 2004, published 2007).

T1: Fas-Fc / Fas ligand binding (Mus musculus, UniProt P25446)
T1 construct: purchased R&D
T1 sequence (P25446 22-169 limits assumed): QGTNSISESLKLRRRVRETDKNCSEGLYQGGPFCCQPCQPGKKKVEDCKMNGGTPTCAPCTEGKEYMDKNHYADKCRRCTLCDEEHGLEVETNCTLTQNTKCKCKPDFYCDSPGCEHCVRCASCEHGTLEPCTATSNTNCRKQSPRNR

T2: Fas-Fc (Mus musculus, UniProt P25446)
T2 construct: purchased R&D
T2 sequence (P25446 22-169 limits assumed): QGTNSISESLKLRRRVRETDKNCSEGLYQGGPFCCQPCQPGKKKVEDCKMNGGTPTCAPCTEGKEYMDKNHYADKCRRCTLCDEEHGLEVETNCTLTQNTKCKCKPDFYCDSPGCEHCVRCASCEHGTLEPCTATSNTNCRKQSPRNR

T3: Fas-Fc (extracellular part of Fas) (Mus musculus, UniProt P25446)
T3 construct: purchased R&D
T3 sequence (P25446 22-169 limits assumed): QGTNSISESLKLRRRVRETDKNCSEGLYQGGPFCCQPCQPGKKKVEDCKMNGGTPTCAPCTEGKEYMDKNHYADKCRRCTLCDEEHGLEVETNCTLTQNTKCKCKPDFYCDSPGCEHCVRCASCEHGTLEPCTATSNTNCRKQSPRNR


Key:
[1] = biological target: T1, Fas-Fc / Fas ligand binding; assay: Competition ELISA: coated Fas ligand, Fas-Fc added with increasing amounts of polypeptide; conditions: Fas ligand 1 μg/ml coated, Fas-Fc 1 μg/ml
Experimental: This antibody also recognizes Fas-Fc which is also tagged at the C-terminus by His. In FIG. 2b, a fixed amount of purified recombinant Fas-ligand was added to Fas-Fc in the absence or presence of increasing amounts of AlphaMet as indicated. Samples were subjected to pull down using proteinA agarose followed by Western blot using a polyclonal rabbit anti-FasL antibody. […] Fas ligand (1 μg/ml) was coated in the wells of a microtiter plate (triplicate wells) then 1 μg/ml of Fas-Fc was added in the absence or presence of an increasing amount of the indicated polypeptide. A 13 mer YLGA polypeptide derived from FasL also was synthesized and used. The control peptide was a scrambled 13 mer. Anti human IgM-HRP conjugates were used to detect the bound Fas-Fc. […] One-way ANOVA was carried out for determination of statistical significance. […] Cells (3×10^5) were plated in 24-well plates having Poly-L-Lysine pre-treated cover glass. 2 μg/ml of Fas ligand was added and the cells were incubated for 30 min on ice. Cells were then washed by PBS twice, and were subjected to immunostaining using anti-Fas ligand antibody and fluorescent microscopy. In Frame A, Fas ligand was not added, in B, only Fas ligand was added, in C-F, Fas ligand was added with different polypeptides as follows: AlphaMet, 12 mer YLGA, control peptide, and YLGA mutated AlphaMet, respectively.
(§1) ELISA. Synthesized polypeptides (Genemed Synthesis, Inc. South San Francisco, Calif.) were dissolved in water and diluted in the coating buffer (0.05M of Sodium Carbonate, 0.02% of Sodium Azide, pH 9.6) to a final concentration of 1 ug/ml. One hundred microliter aliquots were added to coat each well of a 96-well microtitre plate. The coated plates were then washed with PBS-Tween (0.5%) three times. The plates were blotted and dried by tapping upside down on tissue paper. They were blocked using 200 μl of 1% of BSA in PBS solution followed by a 2 hour incubation. Plates were washed another three times, Fas-Fc was added, and the plates were incubated for another 2 hours. The plates were washed three times and anti-human IgM Fc HRP conjugates were included at a final concentration of 1:20,000, and incubated for 1 hour. Plates were washed three times again and ready-to-use TMD was added and incubated for 30 minutes. The color reaction was stopped by 2M of Sulfuric Acid. Plates were applied to color read at a wave length of 450 nm.

Fas-Fc = biological target: T2, Fas-Fc; assay: ELISA of Fas-Fc binding to coated synthetic polypeptides; conditions: peptides coated at 1 μg/ml, increasing Fas-Fc, OD 450 nm
Excerpt: The Met alpha but not beta chain binds to Fas (FIG. 1a). Various regions of the mouse Met cDNA corresponding to the alpha chain or the extra-cellular portion of the Met beta chain were cloned into expression vectors (pCRT7 TOPO/AlphaMet or pCRT7 TOPO/beta chain) and subjected to in vitro transcription/translation by a rabbit reticolucyte lysate translation system. Empty vector was included in each experiment as a control. The expressed proteins were labeled with ^35S-Methionine. Pull down assays were performed using Fas-Fc, a chimeric molecule which lacks the interacellular cytoplasmic domain and protein-A agarose as described in Wang et al., 2002. FIG. 1b is a schematic presentation of the Met alpha chain and its mutant version used to map the region interacting with Fas. The C-terminus of each construct contains a hexa-Histidine tag for ease of detection. Start cordon ATG was added to the N-terminally truncated constructs. The YLGA (SEQ ID NO:1) motif mutation was prepared by PCR, in which YLGA (SEQ ID NO:1) was replaced by DHER (SEQ ID NO:24). […] In vitro translated ^35S-methionine labeled truncated/mutated AlphaMet proteins were pulled down with 2 μg of Fas-Fc or the same amount of IgG. Lane 1: 10% of AlphaMet input; Lane 2: AlphaMet with IgG control; Lanes 3 to 8: pull down of various truncated AlphaMet proteins; N-terminal 1-106 residues; C-terminal truncated, residues 1-210; alpha chain, residues 1-306; alpha chain with transmembrane domain, 1-338; N-terminally truncated alpha chain, residues 100-306; and N-terminally truncated with addition of the transmembrane domain 100-338, respectively. FIG. 1d depicts the amino acid sequence alignment of alpha chain with FasL, determined using the CLUSTALW, SIM+LALNVIEW, and ALIGN at ExPASy Proteomic Tools (available on the internet at us.expresly.org/tools). The numbers indicate the amino acid residues of the indicated protein. […] Recombinant His-tagged AlphaMet or its mutant version were expressed in E. coli, purified with chromatography, and subjected to Fas-Fc (lanes labeled Fas) or control IgG pull down experiments, and detected by Western blot using anti-His antibody that recognizes C-terminal His. This antibody also recognizes the Fas-Fc which is also tagged at the C-terminus by His. […] Purified recombinant AlphaMet protein (approximately 10 μg) was mixed with Hepa 1-6 cells or Jurkat cell lysates and subjected to immunoprecicitation using anti-Fas antibody or control IgG followed by Western blot using anti His-tag antibody as a probe. […] Peptides (1 μg/ml) were coated into the 96-well microtiter plates in triplicate and after blocking with 1% BSA, increasing amounts of Fas-Fc were added as indicated. The control peptide was a scrambled 13 mer. After washing the wells, anti-human […]-HRP conjugates (1:20,000) were added to detect the bound Fas-Fc using TMD dye and the OD value was determined at a wavelength of 450 nm. One-way ANOVA was carried out for determination of statistical significance.
as §1, with “Plates were applied to color read at a wave length of 450 nm.” left out

[2] = biological target: CFP-tagged and YFP-tagged Fas expressed in Hepa 1-6 cells; assay: cell-based or functional assay
[3] = biological target: T3, Fas-Fc (extracellular part of Fas); assay: Fas-Fc pull down assay with protein-A agarose; assay type: binding; conditions: in vitro translated 35S-labeled proteins, autoradiography
Excerpt: The Met alpha but not beta chain binds to Fas (FIG. 1a). Various regions of the mouse Met cDNA corresponding to the alpha chain or the extra-cellular portion of the Met beta chain were cloned into expression vectors (pCRT7 TOPO/AlphaMet or pCRT7 TOPO/beta chain) and subjected to in vitro transcription/translation by a rabbit reticolucyte lysate translation system. Empty vector was included in each experiment as a control. The expressed proteins were labeled with ^35S-Methionine. Pull down assays were performed using Fas-Fc, a chimeric molecule which lacks the interacellular cytoplasmic domain and protein-A agarose as described in Wang et al., 2002. FIG. 1b is a schematic presentation of the Met alpha chain and its mutant version used to map the region interacting with Fas. The C-terminus of each construct contains a hexa-Histidine tag for ease of detection. Start cordon ATG was added to the N-terminally truncated constructs. The YLGA (SEQ ID NO:1) motif mutation was prepared by PCR, in which YLGA (SEQ ID NO:1) was replaced by DHER (SEQ ID NO:24). […] In vitro translated ^35S-methionine labeled truncated/mutated AlphaMet proteins were pulled down with 2 μg of Fas-Fc or the same amount of IgG. Lane 1: 10% of AlphaMet input; Lane 2: AlphaMet with IgG control; Lanes 3 to 8: pull down of various truncated AlphaMet proteins; N-terminal 1-106 residues; C-terminal truncated, residues 1-210; alpha chain, residues 1-306; alpha chain with transmembrane domain, 1-338; N-terminally truncated alpha chain, residues 100-306; and N-terminally truncated with addition of the transmembrane domain 100-338, respectively. FIG. 1d depicts the amino acid sequence alignment of alpha chain with FasL, determined using the CLUSTALW, SIM+LALNVIEW, and ALIGN at ExPASy Proteomic Tools (available on the internet at us.expresly.org/tools). The numbers indicate the amino acid residues of the indicated protein. […] Recombinant His-tagged AlphaMet or its mutant version were expressed in E. coli, purified with chromatography, and subjected to Fas-Fc (lanes labeled Fas) or control IgG pull down experiments, and detected by Western blot using anti-His antibody that recognizes C-terminal His. This antibody also recognizes the Fas-Fc which is also tagged at the C-terminus by His. […] Purified recombinant AlphaMet protein (approximately 10 μg) was mixed with Hepa 1-6 cells or Jurkat cell lysates and subjected to immunoprecicitation using anti-Fas antibody or control IgG followed by Western blot using anti His-tag antibody as a probe. […] After washing the wells, anti-human […]-HRP conjugates (1:20,000) were added to detect the bound Fas-Fc using TMD dye and the OD value was determined at a wavelength of 450 nm. […]

Molecule | inhibition of FasL binding to Fas-Fc (ELISA) [1] | Fas binding by ELISA (Fas-Fc) | percent of fluorescent cells showing Fas capping [2] [%] | Fas binding in Fas-Fc pull down [3]
AHSSYLGAVFNLT [YLGA-13 mer] | significantly inhibited FasL binding | bound Fas strongly | – | –
FLGA [FLGA tetramer] | – | identical binding activity to that of the YLGA tetramer | – | –
FLGAV | inhibiting FasL binding to Fas | very active in binding to Fas | – | –
FTAETPIQNVVLHGHHIYLGATNYIYVLNDKDLQKV [36 mer] | significantly inhibited FasL binding | bound Fas strongly | – | –
HHIFLGATNYIY | significantly inhibited FasL binding | strong Fas-binding activity | – | –
Jo2, monoclonal anti-Fas antibody | – | – | 30 | –
RLGA | – | completely lost their Fas binding capacity | – | –
TGHIYLGAVNRIY [13-mer derived from PlexinA4] | significantly inhibited FasL binding | strong Fas-binding activity | – | –
YLRA | – | completely lost their Fas binding capacity | – | –
YRGA | – | completely lost their Fas binding capacity | – | –
Met beta chain: extracellular region of Met beta chain (amino acids 308 to 968, with transmembrane portion) (protein) TREEVFNILQAAYVSKPGANLAKQIGASPSDDILFGVFAQSKPDSAEPVNRSAVCAFPIKYVNDFFNKIVNKNNVRCLQHFYGPNHEHCFNRTLLRNSSGCEARSDEYRTEFTTALQRVDLFMGRLNQVLLTSISTFIKGDLTIANLGTSEGRFMQVVLSRTAHLTPHVNFLLDSHPVSPEVIVEHPSNQNGYTLVVTGKKITKIPLNGLGCGHFQSCSQCLSAPYFIQCGWCHNQCVRFDECPSGTWTQEICLPAVYKVFPTSAPLEGGTVLTICGWDFGFRKNNKFDLRKTKVLLGNESCTLTLSESTTNTLKCTVGPAMSEHFNVSVIISNSRETTQYSAFSYVDPVITSISPRYGPQAGGTLLTLTGKYLNSGNSRHISIGGKTCTLKSVSDSILECYTPAQTTSDEFPVKLKIDLANRETSSFSYREDPVVYEIHPTKSFISGGSTITGIGKTLNSVSLPKLVIDVHEVGVNYTVACQHRSNSEIICCTTPSLKQLGLQLPLKTKAFFLLDGILSKHFDLTYVHNPVFEPFEKPVMISMGNENVVEIKGNNIDPEAVKGEVLKVGNQSCESLHWHSGAVLCTVPSDLLKLNSELNIEWKQAVSSTVLGKVIVQPDQNFAGLIIGAVSISVVVLLLSGLFLWMRKRKHKDLGSELVR | – | – | – | not the Met beta chain region bound specifically
